Experimental findings from patent US20240392013A1, “IL1RAP ANTIBODIES AND USES THEREOF” (STELEXIS THERAPEUTICS, LLC, priority 2021, published 2024) are described below.

The test system of one experiment is cyIL1RAP. In words: Kinetics of IL1RAP mAbs by Octet, cynomolgus IL1RAP. The experiment is classed as binding. Here is the method: (§1) Antibodies were diluted in kinetics buffer (0.1% BSA, 0.02% Tween-20 and 0.05% NaN3 in PBS) and loaded onto 16 channel anti-mouse IgG Fc capture sensors (AMC, Cat #2001073; Sartorius, Göttingen, Germany). Human, huIL1RAP-His (Sino Biological, lot: MB08MA1301), and monkey, cyIL1RAP-His (Lake Pharma, NY, USA; lot:16205819371) proteins were titrated starting from the highest concentration of 100 nM and followed by 50 nM and 25 nM. Purified antibodies were loaded at 5 μg/ml in kinetics buffer. The experimental parameters selected to determine the kinetic constants were Baseline for 60 s, Loading of antibody to sensor for 180 s, Association of analyte to antibody for 120 s, Dissociation for 1200 s and Regeneration in 10 mM Glycine pH 1.7 for 4×30 s.
(§2) Regeneration cycle tracking was selected for 12 cycles. Binding to human and cynomolgus IL1RAP was measured and KD (M) kinetics were calculated. Also, the disassociation rate (Kdis) (1/s) and association rate (Kon) (1/Ms) kinetics were calculated (data not shown).
For orientation: Biolayer interferometry detects binding as a change in optical thickness at a sensor tip.

Experiment [1] concerns the target T1, IL1R1/IL1β/IL1RAP complex (Homo sapiens, UniProt Q9NPH3).
T1 construct: extracellular domain Fc-tagged, Cat #10121-H02H; Fc; purchased Sino Biological 10121-H02H (IL1RAP-Fc); 10126-H08H (IL1R1-His); 10139-HNAE (IL1β)
T1 sequence (Q9NPH3 21-367 limits assumed): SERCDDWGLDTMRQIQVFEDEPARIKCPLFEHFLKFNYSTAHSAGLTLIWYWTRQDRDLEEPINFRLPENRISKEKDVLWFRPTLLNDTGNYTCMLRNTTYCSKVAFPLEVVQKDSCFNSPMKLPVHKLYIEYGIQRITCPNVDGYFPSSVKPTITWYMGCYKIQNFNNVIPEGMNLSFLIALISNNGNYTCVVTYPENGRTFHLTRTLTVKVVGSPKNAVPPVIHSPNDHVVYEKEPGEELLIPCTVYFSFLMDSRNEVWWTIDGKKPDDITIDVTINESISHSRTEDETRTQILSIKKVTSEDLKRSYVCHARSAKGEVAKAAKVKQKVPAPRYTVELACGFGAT
As to the kind of experiment: Blocking of IL1R1/IL1β/IL1RAP complex formation, cell-free ELISA. The experiment is classed as biochemical. The following applies: FIG. 4. As for the experimental part:
High-binding 96-well plates were coated with IL1RAP-Fc protein (Sino Biological, Cat #10121-H02H) at concentration of 4 µg/ml and incubated overnight at 4° C. After 3× washes with 0.05% Tween-20 in PBS, pH 7.5, plates were blocked with 1% BSA in PBS for 1 hour at room temperature. Following, wells were incubated with each antibody at concentration of 50 nM for 1 hour at room temperature. Plates were then washed 3× and wells were incubated with premixed complex of IL1R1-His protein (Sino Biological, Cat #10126-H08H) at concentration of […] and IL1β cytokine (Sino Biological, Cat #10139-HNAE) at concentration of […] 1 hour at room temperature. IL1R1/IL1β complex was preincubated in assay buffer (1% BSA in PBS, pH 7.5) for 20 min at room temperature. After 3× washes, plates were incubated with anti-His HRP detection antibody (Medna, Cat #D8212, […]) for 1 hour at room temperature. Following 5× washes, SuperPico chemiluminescent substrate was applied to wells and signal was read on Spectramax M5.
Background: An ELISA detects its analyte on a solid surface through an enzyme-linked reagent.

The next experiment deals with A549 cells. As to the kind of experiment: IL-1-induced IL-6 secretion, ELISA. The following applies: 66 nM-2 μM, 72 hours, dose-dependent. The experiment is classed as cell-based, human. Here is the method: Methods: A549 cells were seeded on CytoOne® 24 well plate (USA Scientific, Cat #CC7682-7524) at 0.05×10^6/mL and were kept at 37° C./5% CO2 in humified incubator. After 6 hours, the cells were treated with IL-1β (0.5 ng/ml) in the presence or absence of IL1RAP antibodies at 66 nM, 200 nM, 666 nM and 2 μM at 37° C./5% CO2 in humified incubator. Cell culture media was collected after 72 hours and was centrifuged at 4° C. for 5 min. All supernatant samples were analyzed in triplicates. Human IL-6 microplate (R&D Part #890045) was incubated for 2 hours at room temperature with standard, control, or supernatant samples (100 μl) diluted in assay diluent RD1W (100 μl). Samples were aspirated and washed with wash buffer (R&D, cat #895003) four times. Human IL-6 conjugate (200p1) (R&D, cat #890046) was added to each well and incubated for 2 hours at room temperature. Aspiration/wash step was repeated as stated above. Equal volume of substrate color reagent A (R&D, cat #895000) and B (R&D, cat #895001) were mixed, and the substrate solution (200 μl) was added to each well and incubated for 20 minutes at room temperature in the dark. Stop solution (50p1) (R&D, cat #895032) was added to each well and optical density was determined at 450 nm by Cytation™ Cell Imaging Multi-Mode Reader (BioTek).

The next experiment concerns A431 cells. In words: IL-36-induced IL-8 secretion, ELISA. The experiment is classed as cell-based, human. The following applies: IL-36γ, 72 hours, dose-dependent. Here is the method: Methods: A431 cells were seeded on CytoOne® 24 well plate (USA Scientific, Cat #CC7682-7524) at 0.05×10^6/mL and were kept at 37° C./5% CO2 in humified incubator. After 6 hours the cells were treated with IL-36γ (0.5 ng/ml) in the presence or absence of IL1RAP antibodies at 66 nM, 200 nM, 666 nM and […]. Cell culture media was collected after 72 hours and was centrifuged at 4° C. for 5 min. All supernatant samples were analyzed in triplicates. Human IL-8 microplate (R&D cat #890462) was incubated for 2 hours at room temperature with standard, control, or supernatant samples (1001) diluted in assay Diluent RD1-85 (1001). Samples were aspirated and washed with wash buffer (R&D Part #895003) for four times. Human IL-8 conjugate (200 μl) (R&D cat #890465) was added to each well and incubated for 2 hours at room temperature. Aspiration/wash step was repeated as stated above. Equal volume of substrate color reagent A (R&D, cat #895000) and B (R&D, cat #895001) were mixed, and the substrate solution (200 ul) was added to each well and incubated for 20 minutes at room temperature in the dark. Stop solution (501) (R&D, cat #895032) was added to each well and optical density of each well was determined at 450 nm with Cytation™ Cell Imaging Multi-Mode Reader (BioTek).

The target of the next experiment is T2, hIL1RAP (Homo sapiens, UniProt Q9NPH3).
T2 sequence (Q9NPH3 21-367 limits assumed): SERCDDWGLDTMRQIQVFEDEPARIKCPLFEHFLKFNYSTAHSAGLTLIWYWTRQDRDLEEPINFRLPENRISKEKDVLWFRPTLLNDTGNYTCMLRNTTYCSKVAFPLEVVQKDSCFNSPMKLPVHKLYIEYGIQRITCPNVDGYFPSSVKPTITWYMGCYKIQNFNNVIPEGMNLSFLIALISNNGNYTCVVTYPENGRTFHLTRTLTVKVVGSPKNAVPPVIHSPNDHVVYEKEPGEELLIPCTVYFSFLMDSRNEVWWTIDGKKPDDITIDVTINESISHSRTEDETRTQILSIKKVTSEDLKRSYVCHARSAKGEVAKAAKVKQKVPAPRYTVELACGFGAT
In words: Kinetics of IL1RAP mAbs by Octet, human IL1RAP. The experiment is classed as binding. Further details: extracellular domain His-tagged, Cat #10121-H08H; His; purchased Sino Biological lot MB08MA1301 (catalogue number not given). Here is the method:
as §1, §2

B1: 74804_12A21B: anti-IL1RAP mAb; VH SEQ ID NO:6, VL SEQ ID NO:23, κ light chain (antibody, V domains shown)
VH: QVQLLQSGAEVKKPGSSVKVSCKASGGTFSIYAIDWVRQAPGQGLEWMGGIIPIFGTANSAQKFQGRVTITADKSTSTAYMELSSLRSEDTAVYYCARNGATSDAFDMWGQGTMVTVSS
VL: EIVLTQSPGTLSLSPGERATLSCRASLSVSSNYLAWFQQRPGQAPRLLIHGVSRRATGIPDRFSGSGSGTDFTLTISRLEPEDFAVYYCQQYGSSPLTFGGGTKVEIK
modifications: 74804_12A21B VH and 74804_29D13A VH; 74804_12A21B VL
Turning to B1, in the experiment on cyIL1RAP, the “cyIL1RAP kdis(1/s)” value was 0.000441 s⁻¹ and the “cyIL1RAP kon(1/Ms)” value was 342200 M⁻¹ s⁻¹. Also, the “Blocking of IL1R1/IL1β/IL1RAP complex formation” value in experiment [1] is recorded as “block IL1R1/IL1β/IL1RAP complex formation in a dose dependent manner”. Besides, the “IL-1-induced IL-6 secretion” value in the experiment with A549 cells is “inhibited”. Further, the “IL-36-induced IL-8 secretion” value with A431 cells is “inhibited”. For the same molecule, in the experiment with hIL1RAP, the “hIL1RAP kdis(1/s)” value is 0.000287 s⁻¹ and the “hIL1RAP kon(1/Ms)” value was found to be 307700 M⁻¹ s⁻¹.

B2: 74804_43F04A: anti-IL1RAP mAb; VH SEQ ID NO:7, VL SEQ ID NO:22, κ light chain (antibody, V domains shown)
VH: QVQLLQSGAEVKKPGSSVKVSCKASGGTFSIYAIDWVRQAPGQGLEWMGGIIPIFGTENSAQNFQGRITITADKSTNTAYMELSSLRSEDTAVYYCARNGATSDAFDIWGQGTMVTVFS
VL: EIVLTQSPGTLSLSPGERATLSCRASLSVSSNYLAWFQQRPGQAPRLLIYGVSRRATGIPDRFSGSGSGTDFTLTISRLEPEDFAVYYCQQYGSSPLTFGGGTKVEIK
modifications: 74804_43F04A VH; 74804_07K10A VL, 74804_29D13A VL and 74804_43F04A VL
Consider B2, for which, in the experiment on cyIL1RAP, the “cyIL1RAP kdis(1/s)” value was found to be 0.0004 s⁻¹ and the “cyIL1RAP kon(1/Ms)” value worked out at 412100 M⁻¹ s⁻¹. Moreover, in experiment [1], the “Blocking of IL1R1/IL1β/IL1RAP complex formation” value is “block IL1R1/IL1β/IL1RAP complex formation in a dose dependent manner”. Further, the “IL-1-induced IL-6 secretion” value in the experiment on A549 cells is “inhibited”. Further, the “IL-36-induced IL-8 secretion” value in the experiment with A431 cells was “inhibited”. In the experiment with hIL1RAP, the “hIL1RAP kdis(1/s)” value turned out to be 0.000149 s⁻¹ and the “hIL1RAP kon(1/Ms)” value stood at 350200 M⁻¹ s⁻¹.
